The target of experiment [1] is human complement C3b (UniProt P01024). Nature of the experiment: ELISA. The conditions noted are these: C3b-coated wells, 50 nM Fg detected with peroxidase-conjugated anti-Fg antibody, read off a plot.
For experiment [2] the target is unchanged. The experiment is described as follows: flow cytometry on bacteria. The conditions noted are these: Alexa488-labeled Fg 60 µg/ml; Efb (mutants) 0.5 µM; serum-opsonized S. aureus; buffer control est. 65 MFI; parent: est. 1300; read off a plot.
The next experiment addresses human fibrinogen (human) (UniProt P02671).

From publication PMC3861539 come the findings set out here.

UniProt P02671, sequence (P02671 36-866, chain 1 of 3): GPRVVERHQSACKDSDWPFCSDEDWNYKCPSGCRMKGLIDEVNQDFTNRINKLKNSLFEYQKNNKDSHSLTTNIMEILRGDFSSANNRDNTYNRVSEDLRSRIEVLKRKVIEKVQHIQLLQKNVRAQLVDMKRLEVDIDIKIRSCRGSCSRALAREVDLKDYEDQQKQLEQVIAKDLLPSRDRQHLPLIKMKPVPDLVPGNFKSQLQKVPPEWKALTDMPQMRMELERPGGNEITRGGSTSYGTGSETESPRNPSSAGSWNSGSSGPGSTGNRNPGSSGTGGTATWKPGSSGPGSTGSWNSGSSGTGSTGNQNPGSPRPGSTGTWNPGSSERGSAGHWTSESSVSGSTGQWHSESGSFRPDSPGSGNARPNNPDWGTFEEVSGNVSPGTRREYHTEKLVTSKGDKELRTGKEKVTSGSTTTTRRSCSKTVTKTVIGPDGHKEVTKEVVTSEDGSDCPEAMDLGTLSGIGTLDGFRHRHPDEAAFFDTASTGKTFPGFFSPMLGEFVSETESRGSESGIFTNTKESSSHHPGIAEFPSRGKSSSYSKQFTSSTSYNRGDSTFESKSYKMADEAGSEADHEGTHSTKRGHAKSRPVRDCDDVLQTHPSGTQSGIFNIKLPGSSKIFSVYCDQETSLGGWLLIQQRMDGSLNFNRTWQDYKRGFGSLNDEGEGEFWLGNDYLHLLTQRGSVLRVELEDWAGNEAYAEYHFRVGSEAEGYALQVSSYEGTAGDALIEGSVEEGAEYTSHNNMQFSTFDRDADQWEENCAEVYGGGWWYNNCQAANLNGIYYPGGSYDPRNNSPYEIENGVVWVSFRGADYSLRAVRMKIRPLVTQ
UniProt P02671, sequence (P02675 45-491, chain 2 of 3, further chain): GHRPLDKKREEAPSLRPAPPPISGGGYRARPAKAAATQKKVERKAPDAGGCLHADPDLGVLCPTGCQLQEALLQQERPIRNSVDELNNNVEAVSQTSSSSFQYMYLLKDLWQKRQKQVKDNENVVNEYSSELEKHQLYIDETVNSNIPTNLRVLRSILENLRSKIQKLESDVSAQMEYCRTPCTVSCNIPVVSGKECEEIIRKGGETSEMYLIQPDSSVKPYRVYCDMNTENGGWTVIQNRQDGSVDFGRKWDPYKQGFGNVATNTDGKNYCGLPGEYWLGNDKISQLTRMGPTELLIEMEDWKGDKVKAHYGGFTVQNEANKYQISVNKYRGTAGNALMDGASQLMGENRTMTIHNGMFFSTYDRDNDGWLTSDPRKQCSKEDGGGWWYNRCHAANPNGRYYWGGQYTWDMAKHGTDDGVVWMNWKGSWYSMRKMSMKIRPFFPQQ
UniProt P02671, sequence (P02679 27-453, chain 3 of 3, further chain): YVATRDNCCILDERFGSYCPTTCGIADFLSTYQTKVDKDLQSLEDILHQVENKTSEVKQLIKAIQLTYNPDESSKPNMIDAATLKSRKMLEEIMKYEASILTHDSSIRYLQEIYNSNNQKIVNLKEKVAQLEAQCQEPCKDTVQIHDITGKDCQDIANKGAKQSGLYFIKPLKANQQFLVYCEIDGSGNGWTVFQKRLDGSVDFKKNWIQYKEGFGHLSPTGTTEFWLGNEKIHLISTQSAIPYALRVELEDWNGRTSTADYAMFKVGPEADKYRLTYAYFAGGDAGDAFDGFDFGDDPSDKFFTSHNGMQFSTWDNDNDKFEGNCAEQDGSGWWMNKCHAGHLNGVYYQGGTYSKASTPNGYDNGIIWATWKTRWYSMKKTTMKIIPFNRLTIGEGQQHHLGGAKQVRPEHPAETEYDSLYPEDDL

As to “GST-tagged full-length Extracellular fibrinogen binding protein (Efb), wild type (from UniProt A6QG59) R131E; N138E”, the response came to 0.2 OD450 with human complement C3b [1] (Efb about 6 nM (fourth point, read from the x axis), parent: est. 0.93); 0.23 OD450 with human complement C3b [1] (Efb about 25 nM (highest point, read from the x axis), parent: est. 0.91); 180 MFI with human complement C3b [2].

The substance “His-tagged Efb, wild type (from UniProt A6QG59 30-165) (natural protein)” had an inhibition of phagocytosis of fluorescent S. aureus by human neutrophils in 2.5% human plasma, dose response of Efb (needs the interaction with C3b as well) in the experiment with human fibrinogen (human) of 0.08 µM.
